# According to PMC3098264, “Crystal Structure of the PAC1R Extracellular Domain Unifies a Consensus Fold for Hormone Recognition by Class B G-Protein Coupled Receptors” (PLoS ONE, 2011):
# B1: un-labeled PACAP (15–31) [not stated] / MBP-PAC1R (25–140)-His6 [human] (parent complex)
# chain 1: KQMAVKKYLAAVLGKRY
# chain 2: CIFKKEQAMCLEKIQRANELMGFNDSSPGCPGMWDNITCWKPAHVGEMVLVSCPELFRIFNPDQDMGVVSRNCTEDGWSEPFPHYFDACGFDEYESETGDQDYYYLSVKALYTVGY
# Variants of: B1
# Test: competitive AlphaScreen; Competing peptide 150uM; residual signal after competition, higher counts = weaker competition by the mutant peptide; read off a plot
row,Variant,response
1,chain 1 KQMAVKKALAAVLGKRY,~1500 Photon Counts
2,chain 1 AQMAVKKYLAAVLGKRY,~1800 Photon Counts
3,chain 1 KQMAVKKYLAAVLGKRA,~2700 Photon Counts
4,chain 1 KQMAVKKYAAAVLGKRY,~1100 Photon Counts
5,chain 1 KQMAVKKYLAAVAGKRY,~26000 Photon Counts
6,chain 1 KQMAVKAYLAAVLGKRY,~2900 Photon Counts
7,chain 1 KQMAVKKYLAAALGKRY,~6300 Photon Counts
8,chain 1 KQMAVKKYLAAVLGKAY,~2700 Photon Counts
9,chain 1 KQMAVKKYLAAVLGARY,~3800 Photon Counts
10,chain 1 KQAAVKKYLAAVLGKRY,~5100 Photon Counts
11,chain 1 KQMAAKKYLAAVLGKRY,~17000 Photon Counts
12,chain 1 KQMAVAKYLAAVLGKRY,~34000 Photon Counts
13,chain 1 KAMAVKKYLAAVLGKRY,~1900 Photon Counts
